Key:
[1] = biological target: DYRK1A (UniProt Q13627); assay: immunofluorescence co-localisation, confocal overlap index
[2] = biological target: TGF-β receptor 1 (UniProt P36897); assay: co-immunoprecipitation, western blot; conditions: reference: wild type Hsp90ab1; sites S225,S254

Row | Substance | other: average overlap index ([1]; reference: wild type Hsp90ab1, sites S225,S254) | binding against the reference [2] | other: average overlap index ([1]; reference: wild type β-catenin, sites T551,S552)
1 | Hsp90ab1 (from UniProt P08238) S225A S254A Hsp90ab1 | weaker; reference 0.5378 | weaker | 
2 | β-catenin (from UniProt P35222) T551A S552A β-catenin |  |  | weaker; reference 0.8419

From publication PMC9763398
